Experimental data as given in paper PMC7070470, “Thermostable Tannase from Aspergillus Niger and Its Application in the Enzymatic Extraction of Green Tea” (Molecules, 2020).

Substrate: CCCOC(=O)c1cc(O)c(O)c(O)c1
Test: purified protein
Type: biochemical, Aspergillus niger
Settings: standard assay condition

B1: rAntan1 (tannase from A. niger FJ0118, Antan1 without signal peptide) (Aspergillus niger CBS 513.88) (protein)
chain: ATPSTLAELCTDSIVKAALPPSEFIQGITIDSDSVTTEVVTNSSVSSEFYPSATINYCNVTFAYSHDGIDGDQVLLEIWLPAPTDFQNRWLSTGGGGYAINSGDQSLPGGVMYGAASGMTDGGFGGFSNNADTAMLLANGTLDYETLYMFAYKAHRELSLIGKALTRNVYGMSDSDKLYAYYQGCSEGGREGWSQVQRFGDEWDGAIIGAPAFRWSFQQTQHLYSNVVEKTLDYYPPPCELDKIVNETIAACDAMDGKVDWVVARTDLCLLDFDISTIEGKPYSCAASRGTPAQNGTVSAKGIEVAKTIINGLHDSQGRRVYFSYQPTAAFDDAETQYNSTTGQWGLDIDQLGGEYIALLVDKNGTTLDSLDGVTYDTLKDWMISGLQEYYSTLQTTWPDLTPFHEAGGKVIHFHGDADFSIPTAASIRYWESVRSIMYPNQDYNSSAEALNEWYRLYTVPGAGHCATNDAMPNGPFPQTNMAVMIDWVENGVVPTTLNATVLQGENEGQNQQLCAWPLRPLWTNNGTTMECVYNQRSIDSWHYDLDAVPMPVY
notes: mature form, predicted 20-residue signal peptide removed; secreted from Pichia pastoris SMD1168 (pPIC9K), DEAE-Sepharose purified; 1725 bp ORF, 575 residues printed
- Km: 73 µM
- kcat (substrate range printed as 0.05–1.0 M): 1060 s⁻¹
